Measured values reported in patent US20160068605A1 (Janssen / Centocor, published 2016).

Columns and labels:
[1] = molecular target: T1, Recombinant human CD123 SP1 ECD-His tag protein (human, UniProt P26951 20-305); experiment: SPR Biacore T200, captured antibody
T1 construct: bought from R&D Systems (#301-R3/CF); biotinylated for some assays; also called rhCD123 SP1; huCD123 ECD SP1
T1 sequence: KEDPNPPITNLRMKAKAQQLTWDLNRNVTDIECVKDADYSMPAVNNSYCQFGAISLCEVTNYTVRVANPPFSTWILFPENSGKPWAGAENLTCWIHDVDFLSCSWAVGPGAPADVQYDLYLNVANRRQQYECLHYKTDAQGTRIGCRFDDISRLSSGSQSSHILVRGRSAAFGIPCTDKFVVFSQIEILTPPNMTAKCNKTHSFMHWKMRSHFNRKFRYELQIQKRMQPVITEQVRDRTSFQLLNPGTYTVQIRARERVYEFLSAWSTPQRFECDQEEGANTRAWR
Method: Kinetic studies were performed at 25° C. using a Biacore T200 (Biacore, Inc., now part of GE Healthcare). […] The carboxymethyl groups of dextran were activated with N-Ethyl-N′-(3-Dimethylaminopropyl)carbodiimide (EDC) and N-hydroxysuccinimide (NHS). The anti-Fc antibody was coupled at pH 4.5 in 10 mM sodium acetate. Any remaining reactive sites on the surface were blocked by reaction with ethanolamine. […] 40-70 RU of antibody were captured. […] Association data was collected for 2 min followed by 10 min of dissociation. The surface was regenerated with 30 μL of 100 mM H3PO4 100 μL/min, followed by 50 mM NaOH. The samples for kinetic analysis were prepared in PBS-based buffer (D-PBS containing 3 mM EDTA and 0.005% surfactant P20). Data reported is the difference in SPR signal between the flow cell containing the captured antibody and a reference cell without captured antibody. Additional instrumental contributions to the signal were removed by subtraction of the data from the blank injection from the reference-subtracted signal. Data were analyzed by fitting association and dissociation phases at all concentrations (global fit) with a 1:1 binding model using the BIAevaluation software (BIAcore, Inc.).

[2] = molecular target: T2, human CD123 SP1 ECD displayed on pDisplay-transfected cells (human, UniProt P26951 20-305); experiment: MSD-CAT, hCD123 cells, assay-1; apparent KD (bivalent)
T2 construct: ECD anchored on the surface of stably transfected HEK293 cells by the PDGFR transmembrane domain; also called hCD123 SP1 cells; hCD123 cells
T2 sequence: T1 sequence

Kd [1]: 0.935 nM
koff [1]: 0.00072 s⁻¹
kon [1]: 773000 M⁻¹ s⁻¹
Kd [2]: 0.055 nM
B1: I3RB18 (antibody, IgG1, V domains shown)
VH: EVQLVQSGAEVKKPGESLKISCKGSGYSFTSYWISWVRQMPGKGLEWMGIIDPSDSDTRYSPSFQGQVTISADKSISTAYLQWSSLKASDTAMYYCARGDGSTDLDYWGQGTLVTVSS
VL: EIVLTQSPGTLSLSPGERATLSCRASQSVSSSYLAWYQQKPGQAPRLLIYGASSRATGIPDRFSGSGSGTDFTLTISRLEPEDFAVYYCQQDYGFPWTFGQGTKVEIK
notes: IgG1; also called 13RB18; mAb I3RB18
